Measured values as given in patent US20140004128A1 (AstraZeneca / MedImmune, published 2014).

T1: human IL-1F7/FIL1zeta (human, UniProt Q9NZH6-2 27-192, limits assumed)
T1 construct: Bought
T1 sequence (looked up): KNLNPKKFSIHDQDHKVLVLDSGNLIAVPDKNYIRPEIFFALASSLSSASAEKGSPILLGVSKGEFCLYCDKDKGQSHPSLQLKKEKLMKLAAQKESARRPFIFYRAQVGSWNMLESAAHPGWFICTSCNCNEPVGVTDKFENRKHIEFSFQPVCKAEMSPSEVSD

T2: recombinant rat IL-18 (rat, UniProt P97636 37-194)
T2 construct: Bought
T2 sequence (looked up): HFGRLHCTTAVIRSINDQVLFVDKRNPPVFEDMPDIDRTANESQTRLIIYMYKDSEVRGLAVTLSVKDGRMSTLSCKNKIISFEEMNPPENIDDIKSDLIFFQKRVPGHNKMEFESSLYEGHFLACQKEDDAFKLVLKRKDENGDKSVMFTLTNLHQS

T3: mouse IL-18 (mouse, UniProt P70380 36-192)
T3 sequence (looked up): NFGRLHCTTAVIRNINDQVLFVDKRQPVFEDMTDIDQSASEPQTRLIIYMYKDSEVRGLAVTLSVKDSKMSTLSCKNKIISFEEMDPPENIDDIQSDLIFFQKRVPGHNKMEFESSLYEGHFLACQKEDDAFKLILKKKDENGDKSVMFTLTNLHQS


Experiments:
[1] = molecular target: T4, recombinant human IL-18 (human, UniProt Q14116 37-193); experiment: cell-based or functional assay
[2] = molecular target: T1, human IL-1F7/FIL1zeta; experiment: SPR (BIAcore 2000), IgG amine-coupled to CM3 chip
[3] = molecular target: T2, recombinant rat IL-18; experiment: SPR (BIAcore 2000), IgG amine-coupled to CM3 chip
[4] = molecular target: T5, human IL-1beta (human, UniProt P01584 117-269); experiment: SPR (BIAcore 2000), IgG amine-coupled to CM3 chip
T5 construct: Bought; also called Human IL-1β

[5] = molecular target: T6, recombinant Rhesus Macaque IL-18 (Rhesus Macaque, UniProt Q9BGI5 37-193); experiment: HTRF receptor-ligand competition: Rhesus Macaque IL-18 (1.5 nM) with Eu-cryptate human IL-18Rα and biotinylated human IL-18Rβ
T6 construct: Bought; also called Rhesus m; IL-18

[6] = molecular target: T4, recombinant human IL-18; experiment: SPR (BIAcore 2000), IgG amine-coupled to CM3 chip, IL-18 as analyte, 1:1 Langmuir
[7] = molecular target: T4, recombinant human IL-18; experiment: HTRF receptor-ligand competition: human IL-18 with Eu-cryptate IL-18Rα and biotinylated IL-18Rβ
[8] = molecular target: T1, human IL-1F7/FIL1zeta; experiment: SPR, IgG amine-coupled to CM5 chip
[9] = molecular target: T2, recombinant rat IL-18; experiment: SPR, IgG amine-coupled to CM5 chip
[10] = molecular target: T3, mouse IL-18; experiment: SPR, IgG amine-coupled to CM5 chip
[11] = molecular target: T5, human IL-1beta; experiment: SPR, IgG amine-coupled to CM5 chip
[12] = molecular target: T4, recombinant human IL-18; experiment: cell-based or functional assay; remark: listed apart in the source
[13] = molecular target: T7, human IL-18-FH (baculovirus-produced IL-18 containing FLAG and His tags) (human, UniProt Q14116 37-193); experiment: HTRF competition of IL-18BPa-Fc binding to FLAG/His-tagged human IL-18
T7 construct: not shown: N-terminal Flag tag and histidine tag

[14] = molecular target: T6, recombinant Rhesus Macaque IL-18; experiment: cell-based or functional assay
[15] = molecular target: T4, recombinant human IL-18; experiment: cell-based or functional assay; remark: listed apart in the source
[16] = molecular target: T6, recombinant Rhesus Macaque IL-18; experiment: SPR (BIAcore), IgG amine-coupled to CM3 or CM5 chip, IL-18 as analyte, 1:1 Langmuir
[17] = molecular target: T4, recombinant human IL-18; experiment: as above
[18] = molecular target: cynomolgus monkey IL-18 (cynomolgus monkey, UniProt A0A2K5TJ84 37-193); experiment: cell-based or functional assay
[19] = molecular target: T6, recombinant Rhesus Macaque IL-18; experiment: cell-based or functional assay; remark: listed apart in the source
[20] = molecular target: T4, recombinant human IL-18; experiment: cell-based or functional assay; remark: listed apart in the source
[21] = molecular target: T4, recombinant human IL-18; experiment: HTRF receptor-ligand competition: human IL-18 with Eu-cryptate IL-18Rα and biotinylated IL-18Rβ; purified scFv

Row | Binder | binding result [8] | binding result [9] | binding result [10] | binding result [11] | IC50, IFNγ release by human PBMC stimulated with LPS and IL-12 (endogenous IL-18) [12] | IC50, IFNγ release KG-1 cell assay, Rhesus Macaque IL-18 [14] | IC50, IFNγ release KG-1 cell assay, human IL-18 [15] | Kd [16] | koff [16] | kon [16] | Kd [17] | koff [17] | kon [17] | further results
1 | Antibody 1 IgG2 (antibody, V domains shown, Whole human IgG2 heavy chain and human kappa light chain (vectors pEU9.2 and pEU3.4)) VH: QVQLQQSGPRLVKPSQTLSLTCTVSGGSISSGGYYWSWIRQPAGKGLEWIGSIYYSGSTYYNPSLKSRVTISGDTPKNQFSLKLSSVTAADTAVYYCARTPAYDGDARADFFDVWGRGTLVTVSS VL: DIVMTQSPSTLSASVGDRVTITCRASQGISSWLAWYQQKPGRAPKVLIYKASTLESGVPSRFSGSGSGTDFTLTISSLQPEDFATYYCQQSYSTPWTFGQGTKLEIK | – | – | – | – | – | – | – | – | – | – | – | – | – | IC50, inhibition of IFNγ release by KG-1 cells stimulated with human IL-18 and TNFα [1]: 258 nM; binding result [2]: no binding (tested: 200 nM); binding result [3]: no binding (tested: 200 nM); binding result [4]: no binding (tested: 200 nM); IC50 [5]: 5.4 nM; Kd [6]: 9.96 nM; koff [6]: 0.00732 s⁻¹; kon [6]: 735000 M⁻¹ s⁻¹; IC50 [7]: 2.9 nM
2 | Antibody 12 GL IgG2 (antibody, V domains shown, Germlined; whole human IgG2, kappa light chain) VH: QVQLQESGPGLVKPSETLSLTCTVSGGSISADGYYWSWIRQPPGKGLEWIGSLYYSGSTYYNPSLKGRVTISGDTSKNQFSLKLSSVTAADTAVYYCARTPAYFGQDRTDFFDVWGRGTLVTVSS VL: DIQMTQSPSTLSASVGDRVTITCRASQGISSWLAWYQQKPGKAPKVLIYKASTLESGVPSRFSGSGSGTEFTLTISSLQPDDFATYYCQQSHHPPWTFGQGTKLEIK | no binding | no binding | no binding | no binding | 0.32 nM | 0.285 nM | 0.202 nM | 0.046 nM | 4.79e-05 s⁻¹ | 1.05e+06 M⁻¹ s⁻¹ | 0.092 nM | 8.16e-05 s⁻¹ | 885000 M⁻¹ s⁻¹ | IC50 [13]: 0.2 nM
3 | Antibody 1 scFv (scFv, V domains shown, also called purified scFv Antibody 1) VH: QVQLQQSGPRLVKPSQTLSLTCTVSGGSISSGGYYWSWIRQPAGKGLEWIGSIYYSGSTYYNPSLKSRVTISGDTPKNQFSLKLSSVTAADTAVYYCARTPAYDGDARADFFDVWGRGTLVTVSS VL: DIVMTQSPSTLSASVGDRVTITCRASQGISSWLAWYQQKPGRAPKVLIYKASTLESGVPSRFSGSGSGTDFTLTISSLQPEDFATYYCQQSYSTPWTFGQGTKLEIK | – | – | – | – | – | – | – | – | – | – | – | – | – | IC50 [21]: 12 nM

More lines, main results first:

Row | binding result [8] | binding result [9] | binding result [10] | binding result [11] | IC50, IFNγ release by human PBMC stimulated with LPS and IL-12 (endogenous IL-18) [12] | IC50, IFNγ release KG-1 cell assay, Rhesus Macaque IL-18 [14] | IC50, IFNγ release KG-1 cell assay, human IL-18 [15] | Kd [16] | koff [16] | kon [16] | Kd [17] | koff [17] | kon [17] | Binder | further results
4 | – | no binding | no binding | – | 0.15 nM | 0.461 nM | 0.08 nM | 0.0547 nM | 3.5e-05 s⁻¹ | 630000 M⁻¹ s⁻¹ | 0.0629 nM | 2.9e-05 s⁻¹ | 460000 M⁻¹ s⁻¹ | Antibody 12 GL IgG1TM (antibody, V domains shown, Human IgG1 (gamma 1 (f)) constant domains with three single amino acid substitutions (TM, Oganesyan et al 2008) and human kappa Km3 light chain constant domain; Expressed in CHO cells; also called germlined Antibody 12 IgG1TM) VH: QVQLQESGPGLVKPSETLSLTCTVSGGSISADGYYWSWIRQPPGKGLEWIGSLYYSGSTYYNPSLKGRVTISGDTSKNQFSLKLSSVTAADTAVYYCARTPAYFGQDRTDFFDVWGRGTLVTVSS VL: DIQMTQSPSTLSASVGDRVTITCRASQGISSWLAWYQQKPGKAPKVLIYKASTLESGVPSRFSGSGSGTEFTLTISSLQPDDFATYYCQQSHHPPWTFGQGTKLEIK | IC50, inhibition of IL-18-induced CD11b up-regulation on human neutrophils (flow cytometry) [1]: 2.03 nM; IC50, inhibition of IL-18-mediated enhancement of fMLFF-induced ROS production in human neutrophils (flow cytometry) [1]: 0.2 nM; IC50, IFNγ release by cynomolgus monkey PBMC stimulated with LPS and IL-12 (endogenous IL-18) [18]: 0.28 nM; KD (pM), Schild analysis in the KG-1 IFNγ release cell assay [19]: 142 pM; KD (pM), Schild analysis in the KG-1 IFNγ release cell assay [20]: 71 pM
5 | no binding | no binding | – | no binding | 0.51 nM | 1.52 nM | 0.444 nM | 0.163 nM | 7.08e-05 s⁻¹ | 436000 M⁻¹ s⁻¹ | 0.11 nM | 5.49e-05 s⁻¹ | 500000 M⁻¹ s⁻¹ | Antibody 8 GL IgG2 (antibody, V domains shown, Germlined; whole human IgG2, kappa light chain) VH: QVQLQESGPGLVKPSETLSLTCTVSGGSISAGGYYWSWIRQPPGKGLEWIGSLYYSGSTYYNPSLKGRVTISGDTSKNQFSLKLSSVTAADTAVYYCARTPAYFGQDRTDFFDVWGRGTLVTVSS VL: DIQMTQSPSTLSASVGDRVTITCRASQGISSWLAWYQQKPGKAPKVLIYKASTLESGVPSRFSGSGSGTEFTLTISSLQPDDFATYYCQQSHHPPWTFGQGTKLEIK | –
